Data: patent US5981483A, “Compositions comprising modulators of cytokines of the TGF-β superfamily” (Mount Sinai Hospital Corporation, priority 1997, dated 1999)
Where a SMILES comes first, the peptide text is derived from it. Bridges are numbered along the chain shown (N, C = ends). The star is where a group is joined. Cam = NC(=O)C*

Assays:
[1] = test system: rat bone marrow stromal cells; assay: Dexamethasone-treated rat bone marrow stromal cell cultures (proliferation, mineralization, TGF-β levels); assay type: cell-based; conditions: dexamethasone 10^-8 M, FIG. 17
Method: The methods used in the studies described in this example and illustrated in FIGS. 16 and 17 are as follows. Femoral bones were removed under aseptic conditions from adult male Wistar rats (120 g), cleaned of adherent soft tissues, and washed extensively in antibiotics. The distal ends were removed and the marrow contents were flushed out with 10 ml of culture medium. The cells were dispersed by repeated passage through a 20 gauge needle and incubated in alpha-MEM supplemented with 15% fetal bovine serum, ascorbic acid (50 μg/ml), antibiotics (penicillin G 100 μg/ml, gentamicin 50 μg/ml, fungizone 0.3 μg/ml) and 10 mM β-glycerophosphate. […] Following 6 days of culture at 37° C. in a humidified atmosphere containing 5% CO2 in air, the cells were re-plated at a density of 1×10^2 cell/mm^2 in 96 multi-well plates (Falcon 3047), and grown for another 12-14 days. At the end of culture, the cells were fixed and stained for calcium with alizarin red-s for quantification of bone nodule area (reported as mineralized area (mm^2)/well). To assess mineralized tissue formation in the cultures morphometric measurements were carried out with the aid of a Bioquant IV system (Bioquant, Nashville, Tenn., U.S.A.) using a Leitz Orthoplan microscope. TGF-β in culture supernatants taken 4 days prior to scoring mineralization were measured with and without heat activation (80° C. for 10 min) using the Mink cells as the indicator cell line as described in FIG. 12.

TGF-β1 [2] = target: T1, TGF-β1 (Homo sapiens, UniProt P01137); assay: BIAcore surface plasmon resonance, binding to immobilized TGF-β1; conditions: for kass: ligand TGF-β1
T1 construct: The mature processed cytokines produced from the members of the gene family show almost 100% amino acid identity between species; purchased Collaborative Research (Bedford, Mass.)
T1 sequence (P01137 279-390 limits assumed): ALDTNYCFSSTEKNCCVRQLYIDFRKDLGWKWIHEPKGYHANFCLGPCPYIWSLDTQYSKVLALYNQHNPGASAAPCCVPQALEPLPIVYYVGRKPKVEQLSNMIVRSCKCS
Method: (§1) In this system, a purified protein serving as the ligand is covalently coupled to a carboxymethylated dextran surface, and binding molecules (i.e. the analyte) are passed in a fluid phase across the surface. Binding of the analyte to ligand causes a change in reflected light which is directly proportional to mass bound, and is measured in arbitrary response units (R.U.). Analyte-ligand binding is observed as both increasing response with time during the injection of analyte, and the difference in the position of the baseline before and after injection.
(§2) Schuster, R. V. Swanson, L. A. Alex, R. B. Bourret, M. I. Simon, Nature 365, 343 (1993). 1000 R.U. equals approximately 1 ng/mm^2. The running buffer was 20 mM Hepes (pH 7.2), 150 mM NaCl and the flow rate for all sensorgrams was 3 μl/min.
(§3) Regeneration of the surface to remove bound analyte was done by injection of 10 μl of 20 mM NaOH. To cyclize TRH1 peptides, the material was reduced with 5 mM DTT then brought to a final concentration of 60 μM in 25 mM ammonium acetate (pH 8.5). After stirring in the dark for 30 min at 20° C. with 30 mM potassium ferricyanide, the peptide was mixed with AG3-X4A resin (BioRad), filtered, lyophilization and desalted on a 50×2.5 cm column of Biogel P2 (Pharmacia) developed in water, and further purified by reverse phase HPLC.
(§4) Injection volumes were 36 μl for FIG. 2, 4 and 5 and 45 μl for FIG. 3. […] Protein concentrations in each experiment were (FIGS. 2 and 3), 2, 5, 10, 20, 30, 40 μM; (FIG. 4), 0.21, 0.31, 0.41, 0.62, 0.82, 1.24 μM; (FIG. 5), 0.22, 0.29, 0.44, 0.59, 0.88 μM. R.U. for the immobilized cytokine in each experiment was 2850 R.U. for FIGS. 2 and 3; 7450 R.U. for FIG. 4, and 5300 R.U., for FIG. 5 respectively.
(§5) Data was analyzed using the BIA-evaluation software (Pharmacia Biosensor). The association rate constant, kass, was calculated by first plotting the change in response with time versus response (i.e. dR/dT vs R). When the slope of the line from this graph is plotted versus analyte concentration (i.e d(dR/dT)/dR vs C), kass is obtained from the slope of the line. The dissociation rate constant, kdiss, is obtained during the decrease in response with time after analyte injection is discontinued. Specifically, kdiss was obtained from the slope of the line in a plot of ln(Rt1 /Rtn) vs time. The affinity constants were calculated from KD =kdiss /kass. Variance for kass is standard error of the linear regression plot, and for kdiss values are the mean ± range of 3 or more independent injections.

TGF-β1 binding to TβRII = target: T2, TGF-β1 binding to TβRII (Homo sapiens, UniProt P01137); assay: Competition of TGF-β1 binding to immobilized TβRII (Quantikine ELISA); conditions: 40 pM TGF-β1; fetuin 40 μM, TRH1 peptide from TβRII 20 μM; FIG. 14
T2 construct: The mature processed cytokines produced from the members of the gene family show almost 100% amino acid identity between species; purchased R&D Systems
T2 sequence (P01137 279-390 limits assumed): as above
Method: Inhibition of TGF-β1 binding to TβRII was carried out using the Quantikine ELISA kit (R&D Systems). In particular, 96 well plates were pre-coated with the extracellular domain of TβRII. […] This was followed by a 5 minute incubation with the TβRII coated ELISA wells with shaking, washing as recommended, and a 1 hr incubation with the polyclonal anti-TGF-β1 antibody. Plates were developed as per the instructions, and determinations were made in triplicate.

BMP-2 = target: T3, BMP-2 (Homo sapiens, UniProt P12643); assay: BIAcore surface plasmon resonance, binding to immobilized BMP-2; conditions: for kass: ligand BMP-2
T3 construct: Genetics Institute, Cambridge, Mass; (gift)
T3 sequence (P12643 283-396): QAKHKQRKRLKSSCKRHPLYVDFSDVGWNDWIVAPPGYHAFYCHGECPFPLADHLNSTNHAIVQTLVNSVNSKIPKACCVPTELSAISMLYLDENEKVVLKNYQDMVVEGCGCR
Method: as §1, §2, §3, §4, §5

TGF-β1 [3] = target: T1, TGF-β1; assay: 3H-Thymidine incorporation in Mv1Lu cells: neutralization of the antiproliferative activity of TGF-β1; assay type: cell-based
Method: Mv1Lu cells were seeded at 20,000 cells/well in a 96 well plate containing 0.2% FCS in α-MEM and incubated with the indicated concentrations of proteins for 18 hr. The cells were then pulsed with 8 μCi/ml methyl-^3 H-thymidine (NEN, Boston, Mass.) for 6 hr. Cells were trypsinized, harvested onto filtermats and counted in a β-Counter. Percent neutralization is defined as incorporation in the presence of 12 pM TGF-β1 alone set at 0%, and incorporation without additions as 100%. The difference in ^3 H-thymidine incorporation between 0% and 100% was 7.5 fold. Each point in FIG. 1 and FIG. 12 represents the mean of duplicate determinations, and the results are representative of three experiments. […] Before use, bovine thyroglobulin was spun twice in a centricon (M.W. cutoff of 10,000 Da) micro-concentrator (Amicon, Beverly, Mass.) to remove any excess Iodine and T3/T4 thyroid hormones.

TGF-β2 = target: T4, TGF-β2 (Homo sapiens, UniProt P61812); assay: BIAcore surface plasmon resonance, binding to immobilized TGF-β2; conditions: Table 1; ligand TGF-β2
T4 construct: The mature processed cytokines produced from the members of the gene family show almost 100% amino acid identity between species
T4 sequence (P61812 303-414 limits assumed): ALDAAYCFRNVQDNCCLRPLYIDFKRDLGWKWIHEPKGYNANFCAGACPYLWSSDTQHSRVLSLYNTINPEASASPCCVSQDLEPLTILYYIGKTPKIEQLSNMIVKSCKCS
Method: as §1, §2, §3
as §5, with “Variance for kass is standard error of the linear regression plot, and for kdiss values are the mean ± range of 3 or more independent injections.” left out

BMP-4 = target: T5, BMP-4 (Homo sapiens, UniProt P12644); assay: BIAcore surface plasmon resonance, binding to immobilized BMP-4; conditions: Table 1; ligand BMP-4
T5 sequence (P12644 293-408): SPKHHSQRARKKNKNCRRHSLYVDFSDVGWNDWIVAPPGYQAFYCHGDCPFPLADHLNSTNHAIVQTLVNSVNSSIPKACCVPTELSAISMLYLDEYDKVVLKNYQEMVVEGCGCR
Method: as §1, §2
Regeneration of the surface to remove bound analyte was done by injection of 10 μl of 20 mM NaOH. To cyclize TRH1 peptides, the material was reduced with 5 mM DTT then brought to a final concentration of 60 μM in 25 mM ammonium acetate (pH 8.5). […]
Data was analyzed using the BIA-evaluation software (Pharmacia Biosensor). The association rate constant, kass, was calculated by first plotting the change in response with time versus response (i.e. dR/dT vs R). […] The affinity constants were calculated from KD =kdiss /kass. […]

[4] = Table 2 (calculations repeated)

For `C[C@@H]1C[C@H]2[C@@H]3CCC4=CC(=O)C=C[C@]4(C)[C@@]3(F)[C@@H](O)C[C@]2(C)[C@@]1(O)C(=O)CO` [Dexamethasone, dexamethasone, reference compound], the “increase of the fraction of active TGF-β in the cultures” value [1] was 3 fold.

For `CC[C@H](C)[C@@H]1NC(=O)[C@H](CC(N)=O)NC(=O)[C@H](CCC(=O)O)NC(=O)[C@H](CC(=O)O)NC(=O)[C@H](CC(N)=O)NC(=O)[C@H](CCCCN)NC(=O)[C@H](CCCNC(=N)N)NC(=O)[C@H](Cc2c[nH]c3ccccc23)NC(=O)[C@H](C(C)C)NC(=O)[C@H](C)NC(=O)[C@H](C(C)C)NC(=O)[C@@H](N)CSSC[C@@H](C(=O)O)NC(=O)[C@H](C(C)C)NC(=O)[C@H]([C@@H](C)O)NC(=O)[C@H](CCC(=O)O)NC(=O)[C@H](CC(C)C)NC(=O)[C@H]([C@@H](C)O)NC1=O` [TRH1b (TβRII)], the kass (TGF-β1 [2]; Table 1) was 3700 ± 2900 M⁻¹ s⁻¹, the kass (TGF-β1 [2]; [4]) was 2200 ± 1300 M⁻¹ s⁻¹ and the “inhibition of TGF-β1 binding to immobilized recombinant TβRII” value (TGF-β1 binding to TβRII) was “competitive inhibitors”.

`CC[C@H](C)[C@H](NC(=O)[C@H](CC(=O)O)NC(=O)[C@@H](N)CSCC(N)=O)C(=O)N[C@@H](Cc1c[nH]cn1)C(=O)N[C@H](C(=O)N[C@@H](CC(C)C)C(=O)N[C@@H](CCCCN)C(=O)N[C@@H](CCC(N)=O)C(=O)N[C@@H](CC(=O)O)C(=O)NCC(=O)N[C@@H](CCC(N)=O)C(=O)N[C@@H](Cc1ccccc1)C(=O)N[C@@H](CO)C(=O)N[C@H](C(=O)N[C@@H](CC(C)C)C(=O)N[C@@H](Cc1ccccc1)C(=O)N[C@H](C(=O)N[C@@H](CCCCN)C(=O)N[C@@H](CSCC(N)=O)C(=O)O)[C@@H](C)O)C(C)C)C(C)C` [TRH1b (fetuin) (reduced & alkylated)] (H-C(Cam)DIHVLKQDGQFSVLFTKC(Cam)-OH; N-terminus and C-terminus assumed) was tested, and the “binding to immobilized BMP-2 (in words)” value (BMP-2) was “no significant binding”.

`CC[C@H](C)[C@@H]1NC(=O)[C@H](CC(=O)O)NC(=O)[C@@H](N)CSSC[C@@H](C(=O)O)NC(=O)[C@H](CCCCN)NC(=O)[C@H]([C@@H](C)O)NC(=O)[C@H](Cc2ccccc2)NC(=O)[C@H](CC(C)C)NC(=O)[C@H](C(C)C)NC(=O)[C@H](CO)NC(=O)[C@H](Cc2ccccc2)NC(=O)[C@H](CCC(N)=O)NC(=O)CNC(=O)[C@H](CC(=O)O)NC(=O)[C@H](CCC(N)=O)NC(=O)[C@H](CCCCN)NC(=O)[C@H](CC(C)C)NC(=O)[C@H](C(C)C)NC(=O)[C@H](Cc2c[nH]cn2)NC1=O` [TRH1b (fetuin)] (H-CDIHVLKQDGQFSVLFTKC-OH; disulfide 1-19; N-terminus and C-terminus assumed) was tested, and the kass (BMP-2; [4]) was 1300 ± 500 M⁻¹ s⁻¹ and the “Competition of fetuin-BMP-2 binding” value (BMP-2; co-injected with fetuin, data not shown, listed as fetuin TRH1b peptide) was “competed for fetuin-BMP-2 binding in a dose dependent manner”.

“Thyroglobulin: Bovine thyroglobulin (Sigma), contains the TRH1 domain” was tested, and the “Maximal effect, percent neutralization” value (TGF-β1 [3]; 12 pM TGF-β1, FIG. 1) was “approximately 150%”, the “IC50 for inhibition of TGF-β1 activity, fold lower than for fetuin” value (TGF-β1 [3]; FIG. 1) was 20 fold and the kass (TGF-β2) was 1300 ± 600 M⁻¹ s⁻¹. It also gave a kass (BMP-2; Table 1) of 32000 ± 2000 M⁻¹ s⁻¹ and a kass (BMP-4) of 54000 ± 7000 M⁻¹ s⁻¹.

In the case of “human transferrin: non-binding control protein [reference compound]”, the “binding to immobilized TGF-β1 (in words)” value (TGF-β1 [2]) is reported as “non-binding”.

“reduced and alkylated fetuin: fetuin, reduced and alkylated” was tested, and the “binding to immobilized TGF-β1 (in words)” value (TGF-β1 [2]) was “diminished binding” and the “binding to immobilized BMP-2 (in words)” value (BMP-2) was “diminished binding”.
